Our source for the Kd and EC50 values is paper PMC10039853.

Substitutions are numbered along the chain they refer to. Names may count otherwise.

The chains are these.
B1: anti-lysozyme VHH D3-L11, wild type A79L (protein)
chain: DVQLVESGGGSVQAGGSLRLSCAASGSTDSIEYMTWFRQAPGKAREGVAALYTHTGNTYYTDSVKGRFTISQDKAKNMLYLRMDSVKSEDTAIYTCGATRKYVPVRFALDQSSYDYWGQGTQVTVSS
B2: anti-lysozyme VHH D3-L11, wild type A79M (protein)
chain: B1 chain with L79M
B3: anti-lysozyme VHH D3-L11, wild type A79H (protein)
chain: B1 chain with L79H
B4: anti-lysozyme VHH D3-L11, wild type A79S (protein)
chain: B1 chain with L79S
B5: anti-lysozyme VHH D3-L11, wild type A79W (protein)
chain: B1 chain with L79W
B6: anti-lysozyme VHH D3-L11, wild type A79Q (protein)
chain: B1 chain with L79Q
B7: anti-lysozyme VHH D3-L11, wild type A79F (protein)
chain: B1 chain with L79F
B8: anti-lysozyme VHH D3-L11, wild type A79T (protein)
chain: B1 chain with L79T
B9: anti-lysozyme VHH D3-L11, wild type A79Y (protein)
chain: B1 chain with L79Y
B10: anti-lysozyme VHH D3-L11, wild type A79V (protein)
chain: B1 chain with L79V
B11: anti-lysozyme VHH D3-L11, wild type A79I (protein)
chain: B1 chain with L79I
B12: anti-lysozyme VHH D3-L11, wild type A79N (protein)
chain: B1 chain with L79N
B13: anti-lysozyme VHH D3-L11, wild type A79R (protein)
chain: B1 chain with L79R
B14: anti-lysozyme VHH D3-L11, wild type A79C (protein)
chain: B1 chain with L79C
B15: anti-lysozyme VHH D3-L11, wild type A24L (protein)
chain: B1 chain with A24L, L79A
B16: anti-lysozyme VHH D3-L11, wild type G97F (protein)
chain: B1 chain with L79A, G97F
B17: anti-lysozyme VHH D3-L11, wild type G26I (protein)
chain: B1 chain with G26I, L79A

The target in the first assay is hen egg lysozyme, P00698. The assay is described as follows: SPR. The note with it: chain shown with the change;; parent: est. 3.1e-12; read off a plot.
Sequence of hen egg lysozyme, P00698 (P00698 19-147): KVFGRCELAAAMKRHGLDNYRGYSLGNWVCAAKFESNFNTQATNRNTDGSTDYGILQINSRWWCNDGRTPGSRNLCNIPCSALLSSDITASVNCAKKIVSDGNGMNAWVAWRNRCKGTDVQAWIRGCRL
With B1, the dissociation constant (Kd) was determined as 6.7 pM.

For B2, the Kd is 6.8 pM.

In the case of B3, the Kd turned out to be 23 pM.

For the molecule B4, the Kd was found to be 12 pM.

For the molecule B5, the Kd came out at 15 pM.

Regarding B6, the Kd amounted to 7.2 pM.

For the molecule B7, the Kd was 12 pM.

With B8, the equilibrium dissociation constant (Kd) turned out to be 13 pM.

On to B9, for which the Kd is 5.5 pM.

Turning to B10, the Kd came to 3.6 pM.

As to B11, the dissociation constant Kd came out at 4.9 pM.

As to B12, the Kd worked out at 8.1 pM.

With B13, the dissociation constant (Kd) stood at 26 pM.

For the molecule B14, the dissociation constant (Kd) was 3.7 pM.

The assay is the same for the next values; noted with them: chain shown with the change;; parent: est. 3.3 pM; read off a plot.
For B15, the dissociation constant Kd is 45 pM.

With B16, the dissociation constant Kd stood at 6.2 pM.

Consider B7, for which the Kd stood at 12 pM.

Consider B17, for which the Kd came to 26 pM.

A further assay addresses hen egg lysozyme, P00698. In words: ELISA. The note with it: chain shown with the change;; parent: est. 0.90; read off a plot. A general note: An ELISA detects its analyte on a solid surface through an enzyme-linked reagent.
As to B16, the EC50 came to 3.2 µg/mL.

The assay is the same for the next values; noted with them: chain shown with the change;; parent: est. 0.92; read off a plot.
For B1, the concentration giving a half-maximal response (EC50) turned out to be 1.5 µg/mL.

Turning to B2, the EC50 worked out at 4.2 µg/mL.

As for B3, the EC50 is 120 µg/mL.

For B4, the EC50 came out at 7.6 µg/mL.

Take B5: the 50% effective concentration (EC50) amounted to 1900 µg/mL.

As for B6, the EC50 came to 9.5 µg/mL.

In the case of B10, the EC50 was found to be 2.5 µg/mL.

As to B11, the EC50 worked out at 0.92 µg/mL.

Regarding B12, the concentration giving a half-maximal response (EC50) amounted to 6.7 µg/mL.

Consider B13, for which the EC50 was determined as 31 µg/mL.

For B14, the concentration giving a half-maximal response (EC50) came out at 10 µg/mL.

Broadly, the Kd is a measure of binding affinity in units of concentration. One may read the EC50 as the concentration giving half of the maximal effect.
